Laboratory results: publication PMC12650144, “Interactive Role of the DHPR β1a SH3 Domain in Skeletal Muscle Excitation–Contraction Coupling” (Biomolecules, 2025)

B1: DHPR α1s II-III loop (domain or fragment, UniProt P07293 666-791, looked up)
chain: EAESLTSAQKAKAEERKRRKMSRGLPDKTEEEKSVMAKKLEQKPKGEGIPTTAKLKVDEFESNVNEVKDPYPSADFPGDDEEDEPEIPVSPRPRPLAELQLKEKAVPIPEASSFFIFSPTNKVRVL
notes: DHPR α1s subunit (CaV1.1), cytoplasmic II-III loop, residues E666-L791 of NCBI X05921 (methods); the results say residues 666-790 of NP_001095190; Methods: E666-L791; results: 666-790; also called α1s DHPR II-III Loop; DHPR II-III loop; source: E. coli BL21, purified (Ni-agarose, ubiquitin removed, preparative electrophoresis); not shown: polyhistidine-tagged ubiquitin, N-terminal, cleaved
B2: α1s II–III loop C region peptide (residues 720–765) (peptide, UniProt P07293 720-765, looked up)
peptide: LKVDEFESNVNEVKDPYPSADFPGDDEEDEPEIPVSPRPRPLAELQ
notes: DHPR α1s subunit, II-III loop C region, residues 720-765 of NP_001095190.1 (skeletal); also called α1s C; skeletal II-III loop C region; source: synthetic peptide
B3: α1c II–III loop C region peptide (residues 851–895) (peptide, UniProt P15381-1 851-895, looked up)
peptide: INMDDLQPNESEDKSPYPNPETTGEEDEEEPEMPVGPRPRPLSEL
notes: DHPR α1c subunit (cardiac, CaV1.2), II-III loop C region, residues 851-895 of NP_001129994.1 (cardiac); also called α1c C; cardiac II-III loop C region; source: synthetic peptide

Key:
[1] = target: T1, DHPR β1a subunit, full length (mouse, UniProt Q8R3Z5-4 1-524); assay: other fluorescence titration; tryptophan fluorescence quenching: intrinsic fluorescence of the β subunit or β1a-SH3 domain in the cuvette (sub-micromolar; 50 nM β1a-FL for the AID titration) monitored while titrating the II-III loop or peptides; excitation 280 nm, emission 340 nm; corrected for dilution and intrinsic fluorescence of the titrant; nonlinear regression; details: both partners purified
T1 construct: mouse voltage-gated calcium channel (DHPR) β1a subunit, NCBI NM_031173, full length; also called β1a-FL; full-length β1a; source: E. coli BL21, purified (Ni-agarose, ubiquitin removed, preparative electrophoresis); not shown: polyhistidine-tagged ubiquitin, N-terminal, cleaved

[2] = target: T2, DHPR β1a SH3 domain (β1a residues V101-P272) (mouse, UniProt Q8R3Z5-4 101-272); assay: as above; details: both partners purified
T2 construct: mouse DHPR β1a subunit, NCBI NM_031173, residues V101-P272 (split SH3 domain with the hook region); also called β1a–SH3 Domain (Residues 101–272); β1a SH3 protein; not shown: polyhistidine-tagged ubiquitin, N-terminal, cleaved
T2 sequence (Q8R3Z5 other isoform, or with tags, fused parts or gaps): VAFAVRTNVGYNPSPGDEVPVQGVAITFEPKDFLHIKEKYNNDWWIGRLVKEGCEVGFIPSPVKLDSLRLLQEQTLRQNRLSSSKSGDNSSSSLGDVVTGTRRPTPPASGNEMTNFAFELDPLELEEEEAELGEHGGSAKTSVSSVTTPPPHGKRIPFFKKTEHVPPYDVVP

T1 sequence (Q8R3Z5 other isoform, or with tags, fused parts or gaps): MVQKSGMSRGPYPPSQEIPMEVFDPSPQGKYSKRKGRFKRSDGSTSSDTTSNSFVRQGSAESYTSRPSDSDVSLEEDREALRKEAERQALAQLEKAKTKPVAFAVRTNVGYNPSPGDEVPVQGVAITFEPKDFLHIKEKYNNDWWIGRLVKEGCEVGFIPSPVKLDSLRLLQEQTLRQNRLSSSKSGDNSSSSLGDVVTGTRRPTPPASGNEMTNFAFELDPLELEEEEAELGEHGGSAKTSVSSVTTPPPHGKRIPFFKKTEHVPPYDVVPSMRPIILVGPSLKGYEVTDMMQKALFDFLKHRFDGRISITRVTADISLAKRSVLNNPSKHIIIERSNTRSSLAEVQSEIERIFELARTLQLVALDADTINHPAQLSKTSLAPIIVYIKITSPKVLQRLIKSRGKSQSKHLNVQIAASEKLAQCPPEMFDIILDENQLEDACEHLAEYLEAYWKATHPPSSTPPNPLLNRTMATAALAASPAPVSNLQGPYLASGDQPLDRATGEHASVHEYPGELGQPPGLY

Binder	Kd [1] [µM]	Kd [2] [µM]
B1	2.5 ± 0.4	2.6 ± 0.2
B2	4.9 ± 0.6	3.6 ± 0.6
B3	3.5 ± 0.4	2.5 ± 0.2
